Where a SMILES comes first, the peptide text is derived from it.
Legend:
[1] = molecular target: T1, MFSD1 (MFSD1WT, mmMFSD1, MFSD1-strep) (Mus musculus, UniProt Q9DC37, Y56A); assay: proteoliposome uptake, pyranine fluorescence; assay type: biochemical; details: pH 6.8, 22 °C, valinomycin; 2.5 mM peptide
T1 construct: full length; N-terminal Twin-Strep-tag + HRV 3C site; Expi293F; purified in DDM/CHS; liposomes POPE:POPG:CHS for transport
T1 sequence (Q9DC37 1-464 Y56A): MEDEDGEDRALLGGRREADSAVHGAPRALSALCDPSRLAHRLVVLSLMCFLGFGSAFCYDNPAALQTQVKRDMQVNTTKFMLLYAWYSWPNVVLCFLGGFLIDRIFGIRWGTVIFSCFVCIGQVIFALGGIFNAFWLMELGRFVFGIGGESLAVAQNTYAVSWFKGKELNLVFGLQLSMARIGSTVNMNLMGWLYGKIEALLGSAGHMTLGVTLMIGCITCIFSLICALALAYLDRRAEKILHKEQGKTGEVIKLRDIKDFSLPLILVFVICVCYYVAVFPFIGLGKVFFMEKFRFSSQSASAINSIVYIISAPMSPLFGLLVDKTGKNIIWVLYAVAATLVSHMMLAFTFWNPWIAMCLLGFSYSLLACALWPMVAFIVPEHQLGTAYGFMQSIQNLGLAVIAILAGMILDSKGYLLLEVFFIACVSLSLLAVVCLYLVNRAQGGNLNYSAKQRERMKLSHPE

[2] = molecular target: T2, GLMP–MFSD1 (GLMP–MFSD1-strep fusion) (Mus musculus, UniProt Q9DC37); assay: cryo-EM, […] Å map with extra density; assay type: binding; details: 20 mM His–Ala; central cavity, outward-open; peptide not unambiguously placed; model 8R8Q (called apo) built in this map
T2 construct: single-chain fusion GLMP-GSAGSAAGSGEF-MFSD1; C-terminal 3C site + Twin-Strep-tag; Expi293F; DDM/CHS; with Glycosylated lysosomal membrane protein
T2 sequence (Q9DC37 1-464): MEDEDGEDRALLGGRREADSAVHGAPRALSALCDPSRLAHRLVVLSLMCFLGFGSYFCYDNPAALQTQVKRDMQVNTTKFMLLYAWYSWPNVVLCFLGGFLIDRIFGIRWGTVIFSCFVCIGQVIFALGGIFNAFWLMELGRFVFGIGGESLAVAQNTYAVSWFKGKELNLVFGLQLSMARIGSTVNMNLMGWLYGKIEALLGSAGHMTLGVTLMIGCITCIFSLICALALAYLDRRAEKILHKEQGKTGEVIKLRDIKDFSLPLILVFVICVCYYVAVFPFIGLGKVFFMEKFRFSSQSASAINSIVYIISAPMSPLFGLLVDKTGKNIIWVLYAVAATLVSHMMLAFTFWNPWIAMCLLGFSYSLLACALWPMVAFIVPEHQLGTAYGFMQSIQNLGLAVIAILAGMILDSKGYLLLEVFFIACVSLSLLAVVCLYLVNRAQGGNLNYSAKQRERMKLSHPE
T2 sequence (Q9JHJ3 36-404 partner): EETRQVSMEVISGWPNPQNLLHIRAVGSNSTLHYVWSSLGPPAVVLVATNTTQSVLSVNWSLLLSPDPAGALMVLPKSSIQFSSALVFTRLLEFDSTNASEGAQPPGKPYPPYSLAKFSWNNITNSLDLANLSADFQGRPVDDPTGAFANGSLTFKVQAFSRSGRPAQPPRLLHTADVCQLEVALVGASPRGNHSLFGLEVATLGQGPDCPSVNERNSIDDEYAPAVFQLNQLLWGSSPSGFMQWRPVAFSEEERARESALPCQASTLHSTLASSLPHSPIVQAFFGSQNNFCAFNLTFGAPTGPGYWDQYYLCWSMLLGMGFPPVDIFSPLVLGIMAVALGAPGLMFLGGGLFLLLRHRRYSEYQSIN

[3] = molecular target: T3, MFSD1 (MFSD1WT, mmMFSD1, MFSD1-strep) (Mus musculus, UniProt Q9DC37); assay: nanoDSF thermal shift titration; assay type: binding
T3 construct: full length; N-terminal Twin-Strep-tag + HRV 3C site; Expi293F; purified in DDM/CHS; liposomes POPE:POPG:CHS for transport
T3 sequence (Q9DC37 1-464): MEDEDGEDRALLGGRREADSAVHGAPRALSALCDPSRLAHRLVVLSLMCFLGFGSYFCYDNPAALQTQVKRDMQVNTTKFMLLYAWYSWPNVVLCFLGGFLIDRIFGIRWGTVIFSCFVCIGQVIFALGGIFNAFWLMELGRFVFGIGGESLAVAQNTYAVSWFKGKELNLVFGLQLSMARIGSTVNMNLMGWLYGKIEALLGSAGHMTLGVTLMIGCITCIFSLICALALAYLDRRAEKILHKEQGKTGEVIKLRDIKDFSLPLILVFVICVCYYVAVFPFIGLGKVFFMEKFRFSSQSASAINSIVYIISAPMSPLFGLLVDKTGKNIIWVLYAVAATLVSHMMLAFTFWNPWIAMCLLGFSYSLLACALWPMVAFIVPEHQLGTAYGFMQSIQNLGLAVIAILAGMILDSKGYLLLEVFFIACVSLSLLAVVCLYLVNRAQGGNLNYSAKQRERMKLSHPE

[4] = molecular target: T3, MFSD1 (MFSD1WT, mmMFSD1, MFSD1-strep); assay: nanoDSF thermal shift; assay type: binding; details: 5 mM ligand, pH 7.5, DDM/CHS
[5] = molecular target: MFSD1-strep (mouse major facilitator superfamily domain containing 1 protein with N-terminal Twin-Strep-tag) (mouse) (UniProt Q9DC37)
[6] = molecular target: T4, MFSD1 as it stands in the GLMP–MFSD1 fusion construct (mouse, UniProt Q9DC37 1-464); assay: cryo-EM structure; purified GLMP–MFSD1 fusion in 20 mM HEPES pH 7.5, 150 mM NaCl, 0.015% DDM, 0.0015% CHS; apo (4.2 Å) and dialysed against 20 mM His–Ala (4.1 Å); outward-open conformation; details: both partners purified
T4 construct: mouse MFSD1, UniProt Q9DC37; C-terminal part of the fusion m3; written apart for the pair row of the structure; also called MFSD1out; source: Expi293F, transiently transfected, purified as part of GLMP–MFSD1-strep; not shown: Twin-Strep, C-terminal, kept
T4 sequence: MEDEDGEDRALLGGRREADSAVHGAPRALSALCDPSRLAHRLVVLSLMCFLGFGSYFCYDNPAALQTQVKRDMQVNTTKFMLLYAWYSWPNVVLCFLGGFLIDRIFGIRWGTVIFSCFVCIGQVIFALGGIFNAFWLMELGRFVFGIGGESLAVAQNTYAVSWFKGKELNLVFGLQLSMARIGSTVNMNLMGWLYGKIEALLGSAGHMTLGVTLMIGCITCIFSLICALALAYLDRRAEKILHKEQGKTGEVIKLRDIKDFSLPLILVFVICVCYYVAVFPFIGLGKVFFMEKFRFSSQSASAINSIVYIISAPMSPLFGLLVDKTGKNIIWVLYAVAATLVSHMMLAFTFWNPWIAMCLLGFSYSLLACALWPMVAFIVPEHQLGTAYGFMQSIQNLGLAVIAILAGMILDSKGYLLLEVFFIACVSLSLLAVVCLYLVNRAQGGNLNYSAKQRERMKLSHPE

[7] = substrate: C[C@H](NC(=O)[C@@H](N)CCCCN)C(=O)O; assay: TEVC current in Xenopus oocytes; assay type: cell-based, Mus musculus; details: pH 5.0, −40 mV, room temperature (20 °C), hydrobromide salt
[8] = substrate: CC(C)C[C@H](N)C(=O)N[C@@H](C)C(=O)O; assay: isotope tracer uptake, LC–MS/MS of Leu(d3) in oocytes; assay type: cell-based, Mus musculus; details: pH 5.0, room temperature, labelled compound, hydrochloride salt, Extended Data Fig. 4a legend gives 4.4 mM for the displayed fit
[9] = substrate: N[C@@H](Cc1c[nH]cn1)C(=O)N[C@@H](CO)C(=O)O; assay: proteoliposome uptake, pyranine fluorescence; assay type: biochemical, Mus musculus; details: pH 6.8, 22 °C, valinomycin-driven membrane potential approx. −100 mV
[10] = substrate: C[C@H](NC(=O)[C@@H](N)Cc1c[nH]cn1)C(=O)O; assay: proteoliposome uptake, pyranine fluorescence; assay type: biochemical, Mus musculus; details: pH 6.8, 22 °C, valinomycin-driven membrane potential approx. −100 mV

N[C@@H](Cc1c[nH]cn1)C(=O)N[C@@H](CO)C(=O)O [His-Ser] (H-His-Ser-OH)
uptake rate vs MFSD1WT [1]: ~ 50 % reduction

C[C@H](NC(=O)[C@@H](N)Cc1c[nH]cn1)C(=O)O [His–Ala] (H-His-Ala-OH)
uptake rate vs MFSD1WT [1]: ~ 50 % reduction
cryo-EM, 4.1 Å map with extra density [2]: revealed an additional density for GLMP–MFSD1His–Ala
Kd [3]: 6.7 ± 0.55 mM

CC(C)C[C@H](NC(=O)[C@@H](N)CC(C)C)C(=O)O [Leu–Leu]
ΔTm [4]: 14 °C

His–Ala dipeptide
KM of His–Ala uptake into MFSD1 proteoliposomes (pyranine assay) [5]: 119 µM

B1: GLMP as it stands in the GLMP–MFSD1 fusion construct (natural protein, mouse, UniProt Q9JHJ3 36-404, looked up)
chain: EETRQVSMEVISGWPNPQNLLHIRAVGSNSTLHYVWSSLGPPAVVLVATNTTQSVLSVNWSLLLSPDPAGALMVLPKSSIQFSSALVFTRLLEFDSTNASEGAQPPGKPYPPYSLAKFSWNNITNSLDLANLSADFQGRPVDDPTGAFANGSLTFKVQAFSRSGRPAQPPRLLHTADVCQLEVALVGASPRGNHSLFGLEVATLGQGPDCPSVNERNSIDDEYAPAVFQLNQLLWGSSPSGFMQWRPVAFSEEERARESALPCQASTLHSTLASSLPHSPIVQAFFGSQNNFCAFNLTFGAPTGPGYWDQYYLCWSMLLGMGFPPVDIFSPLVLGIMAVALGAPGLMFLGGGLFLLLRHRRYSEYQSIN
modifications: N-glycans on Asn85, Asn94, Asn157, Asn228 and Asn331
notes: mouse GLMP, UniProt Q9JHJ3; N-terminal part of the fusion m3; written apart for the pair row of the structure; source: Expi293F, transiently transfected, purified as part of GLMP–MFSD1-strep
binding result [6]: binds

B2: MFSD1–GLMP oocytes (MFSD1L11A/L12A-EmGFP + GLMPY400A-mKate2) (Mus musculus; L11A/L12A) (protein)
chain: MEDEDGEDRAAAGGRREADSAVHGAPRALSALCDPSRLAHRLVVLSLMCFLGFGSYFCYDNPAALQTQVKRDMQVNTTKFMLLYAWYSWPNVVLCFLGGFLIDRIFGIRWGTVIFSCFVCIGQVIFALGGIFNAFWLMELGRFVFGIGGESLAVAQNTYAVSWFKGKELNLVFGLQLSMARIGSTVNMNLMGWLYGKIEALLGSAGHMTLGVTLMIGCITCIFSLICALALAYLDRRAEKILHKEQGKTGEVIKLRDIKDFSLPLILVFVICVCYYVAVFPFIGLGKVFFMEKFRFSSQSASAINSIVYIISAPMSPLFGLLVDKTGKNIIWVLYAVAATLVSHMMLAFTFWNPWIAMCLLGFSYSLLACALWPMVAFIVPEHQLGTAYGFMQSIQNLGLAVIAILAGMILDSKGYLLLEVFFIACVSLSLLAVVCLYLVNRAQGGNLNYSAKQRERMKLSHPE
notes: heterodimer at plasma membrane of Xenopus laevis oocytes; lysosomal sorting mutants; EmGFP and mKate2 fusions; with Glycosylated lysosomal membrane protein
Km [7]: 2600 ± 400 µM
Km [8]: 5600 ± 1600 µM

B3: MFSD1 (MFSD1WT, mmMFSD1, MFSD1-strep) (Mus musculus) (protein)
chain: MEDEDGEDRALLGGRREADSAVHGAPRALSALCDPSRLAHRLVVLSLMCFLGFGSYFCYDNPAALQTQVKRDMQVNTTKFMLLYAWYSWPNVVLCFLGGFLIDRIFGIRWGTVIFSCFVCIGQVIFALGGIFNAFWLMELGRFVFGIGGESLAVAQNTYAVSWFKGKELNLVFGLQLSMARIGSTVNMNLMGWLYGKIEALLGSAGHMTLGVTLMIGCITCIFSLICALALAYLDRRAEKILHKEQGKTGEVIKLRDIKDFSLPLILVFVICVCYYVAVFPFIGLGKVFFMEKFRFSSQSASAINSIVYIISAPMSPLFGLLVDKTGKNIIWVLYAVAATLVSHMMLAFTFWNPWIAMCLLGFSYSLLACALWPMVAFIVPEHQLGTAYGFMQSIQNLGLAVIAILAGMILDSKGYLLLEVFFIACVSLSLLAVVCLYLVNRAQGGNLNYSAKQRERMKLSHPE
notes: full length; N-terminal Twin-Strep-tag + HRV 3C site; Expi293F; purified in DDM/CHS; liposomes POPE:POPG:CHS for transport
Km [9]: 24.4 ± 13.5 µM
Km [10]: 119.1 ± 59.3 µM

Source: PMC11252000, “MFSD1 with its accessory subunit GLMP functions as a general dipeptide uniporter in lysosomes” (Nature Cell Biology, 2024)
